Experiment: yeast display, Sf9 membrane polyspecificity reagent, FACS + sequencing; frameworks hold sequencing errors
Procedure, shortened: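 Synthetic nanobody libraries on Saccharomyces cerevisiae BJ5465 were galactose-induced for 36–48 hours, stained 1 hour at 4 °C with 10% biotinylated, detergent-solubilized Sf9 membrane reagent and enriched on streptavidin microbeads. FACS then separated cells into low and high (top ~1%) gates by anti-HA (expression) and streptavidin (reagent binding) fluorescence. Genes were colony-PCR amplified, MiSeq 2 × 250 sequenced and CDR-length filtered. A clone's polyreactivity label is that of its gate of origin.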

Row | Sequence | polyreactivity (PSR sort gate)
1 | QVQLVESGGGLVQAGGSLRLSCAASGFTFSWYAMGCYRQAPGKVRELVAAITSRGGITYYADSVKGRFTISRDNAKNTVYLQMNSLKPEDTAVYYCNAYSQRYGYYYWGQGTQVTVSS | high polyreactivity
2 | QVQLVESGGGLVQAGGSLRLSCAASGFIFLRYGMGWYRQAPGKARELVATISWSGDSTYADSVKGRFTISRDNAKNTLYLQMNSLKPEDTAVYYCATSGDWWGFRYDYWGQGTQVTVSS | low polyreactivity
3 | QVQLVESGGGLVQAGGSLRLSCAASGRTFLYNAMGWYRQAPGKERELVAAISWNGGSTYYADSVKGRFTISRDNAKNTVYLQMNSLKPEDTAVYYCNAVYRPRVGRRFPTGYDYWGQGTQVTVSS | high polyreactivity
4 | QVQLVESGGGLVQAGGILRLSCAASGSIYYAMGWYRQAPGKERELVAGINSSGSTNYADSVKGRFTISRDNAKNTVYLQMNSLKPEDTAVYYCAARAIVSFDYWGQGTQVTVSS | low polyreactivity
5 | QVQLVESGGGLVQEGGSLRLSCAASGIIFDGNARGWYRQAPGKEKELVASITSDSSTNYADSVKGRFTISRDNAKNTVYLQMNSLKPEDTAVYYCAAAHWIAPRSDYWGQGTQVTLSS | low polyreactivity
6 | QVQLVESVGGLVQAGGSLRLSCAASGFIQGAYAMGWYRPAPGKERELVAAITSSGGSTYYADSVKGRFTISRDNAKNTVYLQMNSLKPEDTAVYYCNTVYVYGPEYDYWGQGTQVTVSS | high polyreactivity
7 | QVQLVESGGGLVQAGGSLRLSCAASGSTFGPNAMGWYRQAPGKERELVAAIRSNGGRTYYADSVKGRFTISRDNAKITVYLQMNSLKPEDSAVYYCADPHYPYDTPYGYWGQGTQVTVSS | low polyreactivity
8 | QVQLVESGGGLDQAGGSLRLSCAASGSIFSDNVMGWYRQAPGKERELVAAIRDGDTTNYADSVKGRFTISRDNAKNTVYLQMNSLKPEDTAVYYCAAVQDSSPDYSYAYLDGDRDYWGQGTQVTVSS | low polyreactivity
9 | QVQLVESGGGLVQAGGSLRLSCAASGITFYLYAMGWYRQAPGKERELVAAISGRGGITYYADSVKGRFTISRDNAKNTVYLQMNSLKPEDTAVYYCAAGKLIWGQGTQVTVSS | high polyreactivity
10 | QVQLIESGGGLVQAGGSLRLSCAASGRTFKRYAMGWYRQAPGKERELVARITYSGARTYYADSVKGRFTISRDNAKNTVYLQMNSLKPEDTAVYYCAAQQYWTSQYFRSATFDYWGQGTQVTVSS | high polyreactivity
11 | QVQLVESGGALVQAGGSLRLSCAASGSTVKYYAMGWYRQAPGKERELVATSSSGGSTNYADSVKRRFTISRDNAKNTVYLQRNSLKPEDTAVYYCAAYSTWRRIQFWGYNYWGQGTQVTVSS | high polyreactivity
12 | QVQLVESGRGLVQAGGSLRLSCAASGFTLWIYAKGWYRQAPGKESELVAAITWSTGSTYYADSVKGRFTISRDNAKNTVYLLMNSLKPEDTAVYYCPAEFHWWYAGYDYGYWGQGTQVTVSS | low polyreactivity
13 | QVQLVESGGGLVQAGGSLRLSCAASGRIFYTNAMGWSRQAPGKERELVAVISWGGDTTYYADSVKGRFTISRDNAKNTVYLQLNSLKPEDTAVYYCNADWGPTYEIYDSWGQGTQVTVSS | low polyreactivity
14 | QVQLVESGGGLVQAGGSIRLSCAASGRTAKRYAMGWYRQAPGKERELVAAISRGGGSTYYADSVKGRFTISRDNAKNTVYLQMNSLKPEDTAVYYCAADLNSYTRYDYWGQGTQVTVSS | high polyreactivity
15 | QVQLVESGGGLVQAGRSLRLSCAASGRIFTPNAMGWYRQAPGKERELVAAISSSGRTSYADSLKGRFTNTSDNAKITVYLQMNSLKPEDTAVYYCNATWRWTRRGYDYWGQGTQVTVSS | low polyreactivity
16 | QVQLVESGAGLVQAGGRLRLSCGASGRIFGRNAMGLYRQGPGKERELVAAISYSGGSTYYADSVKGRFTISRDNAKNTVYLQMNSLKPEDTAVYYCAARYTRSGYYWGQGTQVTVSS | high polyreactivity
17 | QVQLVESGGGLVQAGGSLRLRCAASGYIFRYYAMGWYRQAPGKEREFVAAISRNGGSTYYADSVKGRFTISRDKAKNTVYLQMNSLKPEDTAVYNCNVVGHDDKYDYWGQGTQVTVSS | high polyreactivity
18 | QVQLVESVGGLVQAGGRLRLSCAASGSTFPRYTRGWYRQAPGKERELVAAISSRGGSTIYADSVKGRFTNSRDNAMNTVYLEMNSLKPEDSAVYYCAARRASRDGYWGQGTQVTVSS | high polyreactivity
19 | QVQLVESGGGLVQAGGSLRLSCAASGIILKYYAMGWNRQAPVKERELVAAITSSGDSTYYADSVKGRFTISRDNAKNTVYLQMNSLKPDDTAVYYCAALRFRGGQSTGRDRMDYWGQGTQVTVSS | high polyreactivity
20 | QVQLVESGGGLVQAGGSLRLTCAASGFTFFTYTMGWYRQPPGKERELVAAISRDGARTNYADSVKGRFTISRDNAKNTVYLQMNSLKPEDTAVYYCAAPTSHLYTEKYDYWGQGTQVTVSS | high polyreactivity
21 | QVQLVESGGGLVQAGGSLRLSWAASGSTFPYYAMGWYRQAPGKERELVAAISWSDANTYYADSVKGRFTISRDNAKNTVYLQMNSLKPEDTAVYYCAAEPYDRYGPYTGYGLNYWGQGTQVTVSS | low polyreactivity
22 | QVQLVESGGCLVQAGGSLRLSCAASGIIFQGYVMGWYRQAPGKEREFVAAISRSGGTTFYADSVKGRFTISRDNAKNTVYLQMNSLKPVDTAVYSCNRARLGRPGYDYWGQGTQVTVTS | high polyreactivity

Row | Sequence | polyreactivity (PSR sort gate)
23 | QVQLVESGGGLVQAGGSLRLSCAASGSTFEYNAMGWYRQAPGKERELVASSTNYADSVKGRFTISRDNAKNTVYLQMNSLKPVDTAVYYCAREQGVNRNHDYWGQGTQLTVSS | low polyreactivity
24 | QVQLVESGGGLVQAGGSLRLSCAASGSTFVNYAMVWYRQAPGKERELVAAITRGGYTYYADSVKGRFTISRDNAKNTVYLEMNSLKPEDTAFYYCNAAVSYPKYPYVSPGVPSYDYWGQGTQVSVSS | low polyreactivity
25 | QVQLVESGGGLVQAGGSLRLSCAASGSIFPRNAMGWYRQAPGKERELVAAISWRGGRTYYADSVKGRFTISRDNAKKTVYLQMNSLNPEDTAVYYCSEQYSRWKRGEYYLSSSYGYWGQGTQVTVSS | high polyreactivity
26 | QVQLVESGGGLVQAGGSLRLSCAASGSIFFNNAMGWYRQAPGKERELVAAITTGGSTYYADSVKGRFTISRDNAKNTVYLQMNSLKPEDTAVYYCAAVVVYPYRLGYDYWGQGTQVTVSS | low polyreactivity
27 | QVQLVESGGGLVQAGGSLRLSCASSGSTFSPNAMGWYRQAPGKERELVAAITYRGANTYYADSVKGRFTISRDNAKNTVYLQMNSLKPEDTAVYYCAAEYAYHHVGFGYWGQGTQVTVSS | low polyreactivity
28 | QVQLVESGGGLVQAGGSLRLSCAASGRIFRYNAMGWYRQAPGKERELVAAISWTVGRTYYADSVKGRFTISRDNAKNTVYLQMNSLKPEDTAVYYCATYFRVWYRSYDYWGQGTQVTVSS | high polyreactivity
29 | QVQLVESGGGLVQAGGSLRLSCAASGSISPYNAMGWYRQAPGKERELVAAISSGGRTYYADSVKGRFTISRDNAKNTVYLQMNSLKPEDTAVYYCARGYWRVYGYSFWYTPEVGYWGQGTQVTVSS | high polyreactivity
30 | QVQLVESGGGLVQAGGSLRLSSAASGITFVWNAMGWYRQAPGKERELVATISRGGVRTYYADSVKGRFTISRDNAKNTVYLQMNSLKQEDTAVYYCAADGSYVHWEYGYWGQGTQVTVSS | low polyreactivity
31 | QVQLVESGGGLVQAGGSLRLSCAASGSIFLGYAMGWYRQAPGKERELVATITSSGSTSYADSVKGRFTISRDNAKNTVYLQMKSLKPEDTAVYFCNTDLFQYGVNHYEYWGQGTQVTVSS | high polyreactivity
32 | QVQLVESGGGLVQAGGSLRLSCAASGSTFHYYAMGWYRQAPGKERELVAAISGSGSSTYYADSVKGRFTISRDNAKNTVYLQMNRLKPEDTAVYYCNARGHYPRARFGYKSGSDRYWGQGTQVTVSS | high polyreactivity
33 | QVQLVESGGGLVQAGGSLRLSCAASGRTFVQYAMGWYRQAPGKERELVAAISDRGGNTYYADSVKGRFTISRDNAKNTVYLQMNSLKPEDTAVYYCAAKIALDNDYWGQGTQVTVSS | high polyreactivity
34 | QVQLVESGGGLVQAGGSLLLSCGASGFIFYAYAMGWYRQAPVKDRELVAVMSSSGGSTYYADSVTGRFSISRAHAKTTVYLEWNSLKPDDTGGYYCAAETGTGETRYYRYWDYYYWGQGTQVTVSS | high polyreactivity
35 | QVQLVESGGGLVQAGGSLRLICADSRRTFVSYTMGWYRQAPAKERELVAAISSGGSTTYADSVKGRFTISRDNAKNTVYLQMNSLKPEDTAVYYGNARYGWSYWSKYDYWGQGTQVNVSS | high polyreactivity
36 | QVQLVESGGGLVQAGGSLRLSCAASGIIFAQYVMGWYRQAPGKERQLVAAIRTSGGRTYYADSVKGRFTISRDHAKITVYLQMISLKPVDTAVYYCAAYGKPTFRSVDYWGQGTQVTVSS | high polyreactivity
37 | QVQLVDSGGGLVQAGGILRLSCAASGSTFRYYAMGWYRQAPGKERELVAAITKNGGSTYYADSVKGRFTISRDNAKNTVYLQMNSLKPEDTAVYYCAVQFSYSGWYYVSYYYWGQGTQVTVSS | high polyreactivity
38 | QVQLVESGGGLVQAGGSLRLSCAASGRISVANAMGWYIQAPGKERELVARISEGVGSTYYADSVKGRFTISRDTAKNTVYLQMNSLKPEDTAVYYCAAYQDYVYSESLFSVSARMYYWGQGTQVTVSS | low polyreactivity
39 | QVQLGESGGGLVQAGGSLRLSCAASGFTFQEYAMGWYRQAPGKDRELVAAITSGTTTNYADSVKGRFTISRDNAKNTVYLQMNSLKPEDTAVYYCNVRRQSGRYRVYEYDYWGQGTQVTVSS | low polyreactivity
40 | QVQLVDSRGGLVQAGGSLRLSCAASGIIFFDYTMGWYSQAPGKERELVASITRGGSTYADSVKGRFTISRDNAMNSVYLQMNSLKPEDTAVYYCAATIVDYDAYGYWGQGTQVTVSS | low polyreactivity
41 | QDQLVESGGGLVQAGGSLRLSCAASGLTFYTYAMGWYRPAPGKERELVAAIRWRGGRTYYADSVKGRFTISRDNAKNTVYLLMNSLKPEDTAVYYCAADYSTLYKYDYWGQGTQVTVSS | low polyreactivity
42 | QVQLVESGGGLVQAGGSLRLSCAASGFNFRWYAMGWYRQAPGKESEFVAAITWRGGRTYYADSVKGRFTISRDNAKNTVYLQMNSLKPEDTAVYYCNAVYQYWHYSEGNYWGQGTQVTVSS | low polyreactivity
43 | QVQLVESGGGLVQAGGRLRLSCAASGSIFITYDMGWYRQAPGKERELVATISTTGGTTYYADSVKGRFTISRDNAMNTVYLQMNSLKPEDTAVYYCAADWRYLYYALDYWGQGTQVTVSS | low polyreactivity
